Reference: patent US20230295310A1 (ABCELLERA BIOLOGICS, published 2023)
Where a chain is given by its changes, count along the chain named.

B1: mAb 237 (antibody, V domains shown)
VH: EVQLLESGGDLVQPGGSLRLTCAASGFTFRSYAMNWVRQAPGKGLEWVSTISSRGDTTNYADSVKGRFTISRDTSKNTLYLQMDNLRADDTAVYYCSKMFSYYYYYMDVWGKGTTVTVSS
VL: SYELTQPLSVSVALGQTARITCGGNNIGSKDVHWYQQKPGQAPVLVIYRDSNRPSGIPERFSGSNSGNTATLTISRAQAGDEADYYCQVWDSRTAVFGGGTQLTAL
notes: VH and VL only
B2: mAb 251 (antibody, V domains shown)
VH: EVQILESGGGLVQPGGSLRLSCVASGFTFRSYVMSWVRRAPGRGLEWVSGISASGGNTYYADSVKGRFTISRDNSKNTLFLQMNGLRAEDTAVYYCAKLFSYYYYFMDVWGKGTTVTVSS
VL: B1 VL with R76G, S92R
notes: VH and VL only
B3: mAb 264 (antibody, V domains shown)
VH: EVQLLESGGGLVQPGGSLRLSCVASGFTFRSSSMTWVRQAPGKGLEWVSGIRGSGGRTYDAESVKGRFTISRDNSKNTLYLQMNSLRAEDTAEYYCAKLYDYYNDYMDVWGKGTTVTVSS
VL: B1 VL with D31N, R93S
notes: VH and VL only
B4: mAb 297 (antibody, V domains shown)
VH: EVQLLESGGGLVQPGGSLRLSCAASGFTFSSYAMNWVRQAPGKGLEWVSIISGGRRDDITYYAASVKGRFTISRDNSKNTLYLQMNSLRAEDTAVYYCAKMYNYYYYYIDVWGKGTTVTVSS
VL: B1 VL with R19K, R93N
notes: VH and VL only
B5: mAb 263 (antibody, V domains shown)
VH: EVQLLESGGGLVQPGGSLRLSCTPSGITFNNYAMTWVRQAPGKGLEWVSGISVSGGSTYYADSVMGRFTISRDSSKTLYLQMNSLRAEDTAVYYCAKFHSHYYYYMDVWGKGTTVTVSS
VL: B1 VL with S92R
notes: VH and VL only
B6: mAb 238 (antibody, V domains shown)
VH: B1 VH
VL: B1 VL with R93S
notes: VH and VL only
B7: mAb 260 (antibody, V domains shown)
VH: B3 VH with T35A, T69I, N74T, A88G, Y95F
VL: B1 VL with D31N, R93S
notes: VH and VL only
B8: mAb 261 (antibody, V domains shown)
VH: EVQLLESGGGFMQPGGSLRLSCAVSGFTFRTSSMAWVRQAPGKGLEWVSGIRGSGGRTYDAESVKGRFTISRDISKNTLYLQMNNLRAEDTAEYYCAKLYDYYNDFMDVWGKGTTVIVSA
VL: B1 VL with D31N, R93S
notes: VH and VL only
B9: mAb 262 (antibody, V domains shown)
VH: B3 VH with Q3R, V23A, T35A, A40D, S49T, E62D
VL: B1 VL with D31N, R93S
notes: VH and VL only
B10: mAb 303 (antibody, V domains shown)
VH: B4 VH with Q3H, V48I, D57S, D58G, Y82D
VL: B1 VL with R93N
notes: VH and VL only
B11: mAb 292 (antibody, V domains shown)
VH: EVQLLESGGGLVQPGGSRRLSCAASGFTFSTYAMSWVRQAPGKGLEWVSVINGRGDDTNYADSVKGRFTISRDNSKNILFLQMNSLRAEDTAVYYCAKKYSYYYYYMDVWGKGTTVTVSS
VL: B1 VL
notes: VH and VL only
B12: mAb 296 (antibody, V domains shown)
VH: EVQLLESGGGLVQPGGSLRLSCAASGFTFSSYAMSWVRQAPGKGLEWVSAISGSGGTTYYTDSVKGRFTISRDNSKNTLYLQMNSLRAEDTAVYYCAKKYSYYYYYMDVWGKGTTVTVSS
VL: B1 VL with D31N, R93S
notes: VH and VL only
B13: mAb 259 (antibody, V domains shown)
VH: B3 VH with Q3L, V23A, N74I, L86V
VL: B1 VL with D31N, R93S
notes: VH and VL only
B14: mAb 252 (antibody, V domains shown)
VH: B2 VH with A53T
VL: B1 VL with R76G, S92R
notes: VH and VL only
B15: mAb 273 (antibody, V domains shown)
VH: EVQLVESGGGLVQPGESLKLSCTASGFTFSVSAIHWVRQASGKGLEWVGRIRSKANSYATAYVASVKGRFTLSRDDSKNTAYLQMNSLKTEDTAVYYCSSYYFVSGTYYNHWGQGTLVTVSS
VL: DIQMTQSPSSLSASVGDRVTITCRASQGIRYDLGWYQQKPGRAPKRLIHSVSSLQSGVPSRFSGSGSGTEFTLTISSLQPEDFATYYCLQHNVNPCTFGQGTKLEIK
notes: VH and VL only
B16: mAb 99 (antibody, V domains shown)
VH: QGQLVESGGGVVQPGRSLRLSCAASGFTFRGFGMHWVRQAPGKGLEWVAIIYYDGKNKYYADSVKGRFTISRDNSKNTLYLQMNSLRAEDTAVYYCAKGGGYNWFDPWGQGTLVTVSS
VL: DIQMTQSPSSLSASVGDRVTITCRASQSISTYLNWYQQKPGKAPKLLIYSASSLQSGVPSRFSGSGSGTDFTLTISNLQPEDFAIYYCQRSYSPPFTFGPGTKLDIR
notes: VH and VL only
B17: mAb 95 (antibody, V domains shown)
VH: B16 VH with G2A, Q3H, A23S, R30S, F32Y, I50L, Y53F, K56R, K98R
VL: DIQMTQSPSSLSASVGDRVTITCRASQSINNYLSWYQQKPGKAPKLLIYLASNLQSGVPSRFSGSGSGTDFTLTISSLQPEDFATYYCQLSYRSPFTFGPGTKVDVK
notes: VH and VL only
B18: mAb 101 (antibody, V domains shown)
VH: B16 VH with T78M
VL: B16 VL
notes: VH and VL only
B19: mAb 93 (antibody, V domains shown)
VH: B16 VH with G2V, F32Y, D54N, K56N, K98R
VL: B16 VL with T31N, K39E, S50T, D70A, N77S, Y92S, R107K
notes: VH and VL only
B20: mAb 100 (antibody, V domains shown)
VH: B16 VH with G2V, A23V, F32Y, A88V, V93L, K98R
VL: B16 VL with S50T, D70V, N77S, K103R, R107K
notes: VH and VL only
B21: mAb 94 (antibody, V domains shown)
VH: B16 VH with G2V, Q3H, A23S, R30S, F32Y, I50L, Y53F, K56R, K98R
VL: B17 VL with N30S, S34N, N53S, S76N, T85S, R93S, K107N
notes: VH and VL only
B22: mAb 97 (antibody, V domains shown)
VH: B16 VH with F32Y, S85N, A88V, K98R
VL: B16 VL with V15I, T31N
notes: VH and VL only
B23: mAb 276 (antibody, V domains shown)
VH: EVQLVESGGGLVQPGGSLRLSCAASGIPFSTYSMNWVRQAPGKGLEWVSYISGSSRTIYYADSVKGRFTISRDNAKKLLFLQMNSLRDEDTAVYYCAREGDYYDSSGWAYWGQGTLVTVSS
VL: DIQMTQSPSSLSASVGDRVTITCRASQNIYKYLNWYEQKPGRAPKLLIYTTSNLQSGVPSRFSGSGSGTAFTLIISSLQPEDFATYYCQQSYGSPYTFGQGTKLEIK
notes: VH and VL only
B24: mAb 283 (antibody, V domains shown)
VH: QVHLVQSGAEVKKPGASVRVSCKASGYTFTGYYIHWLRQAPGQGLEWLGWINPNSGGTNYSQKFRGRVTMTRDTSISTAYMELSRLRSDDTAVYYCARDKVWEQQLVGGFDYWGQGTLVTVSS
VL: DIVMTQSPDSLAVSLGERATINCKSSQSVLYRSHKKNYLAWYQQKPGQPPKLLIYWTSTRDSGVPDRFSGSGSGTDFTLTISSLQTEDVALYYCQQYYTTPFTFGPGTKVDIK
notes: VH and VL only
B25: mAb 68 (antibody, V domains shown)
VH: EVQLVDSGGGLVQPGGSLRLSCSGSGFTFSSYWMSWVRQAPGKGLEWVANIKQDGSQKYYVDSVKGRFTISRDNVKNSLYLQMNSLRVEDTAVYYCARDESSSWYWYFDLWGRGTLVTVSS
VL: DIQMTQSPSTLSASVGDRVTLTCRASQNIVKWLAWYQQKPGKAPKLLIYKASSLESGVPSWFSGSGSGTEFTLTINSLQPDDFATYYCQQYYTYSRTFGQGTKVEIK
notes: VH and VL only
B26: mAb 72 (antibody, V domains shown)
VH: B25 VH with S23A, G24A, Q57E, Y80S, Q82E, V88A, V93L
VL: B25 VL with L21I, N28S, V30S, S56N, W61R, N76S, Y92S, T93S
notes: VH and VL only
B27: mAb 78 (antibody, V domains shown)
VH: B25 VH with D6E, S23A, G24A, Q57E, V75A, V88A, E100N, S102P, W104F
VL: B25 VL with L21I, N28S, I29L, V30S, K31R, W61R, N76S
notes: VH and VL only
B28: mAb 90 (antibody, V domains shown)
VH: EVQLVESGGGLVQPGGSLKLSCAASGFTFSGSAMHWVRQASGKGLEWVGRIRTKPNSYATSYAASVKDRFTISRDDSKNTAYLQMNSLKTEDTAVYYCIRGELEPWGQGTLVTVSS
VL: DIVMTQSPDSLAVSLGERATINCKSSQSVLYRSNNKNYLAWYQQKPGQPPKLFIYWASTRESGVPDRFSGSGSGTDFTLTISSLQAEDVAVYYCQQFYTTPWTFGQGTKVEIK
notes: VH and VL only

Tests used:
[1] = biological target: T1, human CD3e/d (human, UniProt P07766 23-126; P04234 22-105); test: SPR (Carterra LSA), mAb on chip
T1 construct: Bought soluble protein; also called hCD3e/d; human CD3/ed (Sino CT038-H2508H)
T1 sequence (P07766 23-126, chain 1 of 2): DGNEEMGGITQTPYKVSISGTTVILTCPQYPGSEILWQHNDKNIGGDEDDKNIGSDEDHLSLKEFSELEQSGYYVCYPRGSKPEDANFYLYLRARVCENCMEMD
T1 sequence (P04234 22-105, chain 2 of 2): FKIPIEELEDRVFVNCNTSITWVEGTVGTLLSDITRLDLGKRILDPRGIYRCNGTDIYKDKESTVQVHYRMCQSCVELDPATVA
Outline: (§1)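 Purified mAbs amine-coupled (EDC/S-NHS) at 10 μg/mL in 10 mM NaOAc pH 4.25 onto an HC-30M chip, with benchmark and negative-control mAbs; analyte flowed over the array. Double-referenced sensorgrams fitted globally to a 1:1 Langmuir model for ka, kd and KD.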

[2] = biological target: T2, human CD3e/g (human, UniProt P07766 23-126; P09693 23-116); test: SPR (Carterra LSA), mAb on chip
T2 construct: Bought soluble protein; also called hCD3e/g; human CD3e/g (Acro CDD-C52W4)
T2 sequence (P07766 23-126, chain 1 of 2): as the sequence (P07766 23-126, chain 1 of 2) above
T2 sequence (P09693 23-116, chain 2 of 2): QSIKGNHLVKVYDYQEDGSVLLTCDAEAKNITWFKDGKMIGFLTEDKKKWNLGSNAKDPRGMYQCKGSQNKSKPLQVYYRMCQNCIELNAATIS
Outline: as §1

Kd [1] [nM] | Kd [2] [nM] | Binder
25 | 5.6 | B1
24 | 8.1 | B2
32 | 7.4 | B3
66 | 18 | B4
9 | 4.1 | B5
59 | 17 | B6
28 | 4.2 | B7
16 | 3 | B8
26 | 10 | B9
47 | 5.5 | B10
91 | 47 | B11
370 | 180 | B12
63 | 13 | B13
30 | 13 | B14
75 | 46 | B15
8.92 | 11.6 | B16
1.79 | 9.22 | B17
9.06 | 10.9 | B18
47.8 | 35.8 | B19
20.5 | 25.5 | B20
1.57 | 7.8 | B21
16.5 | 17.8 | B22
15 | 9.6 | B23
160 | 20 | B24
46.7 | 99.9 | B25
606 | 394 | B26
283 | 1260 | B27
33.3 | 41 | B28
